Experimental data: PMC7556864, “The NTP generating activity of pyruvate kinase II is critical for apicoplast maintenance in Plasmodium falciparum” (eLife, 2020)

T1: PyrKII (P. falciparum pyruvate kinase II; His-PyrKII) (Plasmodium falciparum, UniProt Q8IJ37)
T1 construct: gene PF3D7_1037100; residues 42-745 (predicted mature protein, apicoplast trafficking peptide removed); synthetic codon-harmonized gene; MBP-TEV-His6 fusion from E. coli BL21 Star (DE3), MBP cut by TEV, N-terminal His6 kept; 83,014 Da
T1 sequence (Q8IJ37 42-745): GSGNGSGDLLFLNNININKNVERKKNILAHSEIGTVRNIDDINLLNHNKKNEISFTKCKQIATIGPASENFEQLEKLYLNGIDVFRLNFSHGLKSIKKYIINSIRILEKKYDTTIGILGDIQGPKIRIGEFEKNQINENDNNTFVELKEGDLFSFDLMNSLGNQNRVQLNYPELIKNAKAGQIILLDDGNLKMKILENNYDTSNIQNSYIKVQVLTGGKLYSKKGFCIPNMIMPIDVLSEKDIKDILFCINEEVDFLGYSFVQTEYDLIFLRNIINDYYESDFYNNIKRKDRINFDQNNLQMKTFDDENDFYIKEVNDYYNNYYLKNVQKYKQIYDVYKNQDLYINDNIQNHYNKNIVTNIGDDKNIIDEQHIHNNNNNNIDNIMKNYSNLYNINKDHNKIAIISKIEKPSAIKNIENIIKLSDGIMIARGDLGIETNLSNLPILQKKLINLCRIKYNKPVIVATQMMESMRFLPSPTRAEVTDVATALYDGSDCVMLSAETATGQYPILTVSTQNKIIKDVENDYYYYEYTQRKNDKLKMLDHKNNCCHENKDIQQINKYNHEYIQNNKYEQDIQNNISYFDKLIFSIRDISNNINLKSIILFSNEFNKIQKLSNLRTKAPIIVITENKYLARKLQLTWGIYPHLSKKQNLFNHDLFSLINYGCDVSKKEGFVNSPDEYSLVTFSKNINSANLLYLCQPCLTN


Assays:
[1] = biological target: T1, PyrKII (P. falciparum pyruvate kinase II; His-PyrKII); assay: LDH-coupled spectrophotometric assay, NADH oxidation at […] nm; format: biochemical; conditions: 3 mM ADP, PEP 0-20 mM, 10 mM MgCl2, 50 mM KCl, 26.5 mM Tris-HCl pH 7.5
purified protein [2] = substrate: Nc1ccn([C@@H]2O[C@H](COP(=O)(O)OP(=O)(O)O)[C@@H](O)[C@H]2O)c(=O)n1; assay: purified protein; format: biochemical, Plasmodium falciparum; conditions: 5 mM PEP, 10 mM MgCl2, 50 mM KCl, 26.5 mM Tris-HCl pH 7.5
purified protein [3] = substrate: Nc1ccn([C@H]2C[C@H](O)[C@@H](COP(=O)(O)OP(=O)(O)O)O2)c(=O)n1; assay: purified protein; format: biochemical, Plasmodium falciparum; conditions: 5 mM PEP, 10 mM MgCl2, 50 mM KCl, 26.5 mM Tris-HCl pH 7.5
purified protein [4] = substrate: Nc1nc2c(ncn2[C@@H]2O[C@H](COP(=O)(O)OP(=O)(O)O)[C@@H](O)[C@H]2O)c(=O)[nH]1; assay: purified protein; format: biochemical, Plasmodium falciparum; conditions: 5 mM PEP, 10 mM MgCl2, 50 mM KCl, 26.5 mM Tris-HCl pH 7.5
purified protein [5] = substrate: Nc1nc2c(ncn2[C@H]2C[C@H](O)[C@@H](CO[P@](=O)(O)OP(=O)(O)O)O2)c(=O)[nH]1; assay: purified protein; format: biochemical, Plasmodium falciparum; conditions: 5 mM PEP, 10 mM MgCl2, 50 mM KCl, 26.5 mM Tris-HCl pH 7.5
purified protein [6] = substrate: Nc1ncnc2c1ncn2[C@@H]1O[C@H](COP(=O)(O)OP(=O)(O)O)[C@@H](O)[C@H]1O; assay: purified protein; format: biochemical, Plasmodium falciparum; conditions: 5 mM PEP, 10 mM MgCl2, 50 mM KCl, 26.5 mM Tris-HCl pH 7.5
purified protein [7] = substrate: Nc1ncnc2c1ncn2[C@H]1C[C@H](O)[C@@H](COP(=O)(O)OP(=O)(O)O)O1; assay: purified protein; format: biochemical, Plasmodium falciparum; conditions: 5 mM PEP, 10 mM MgCl2, 50 mM KCl, 26.5 mM Tris-HCl pH 7.5
purified protein [8] = substrate: O=c1ccn([C@@H]2O[C@H](COP(=O)(O)OP(=O)(O)O)[C@@H](O)[C@H]2O)c(=O)[nH]1; assay: purified protein; format: biochemical, Plasmodium falciparum; conditions: 5 mM PEP, 10 mM MgCl2, 50 mM KCl, 26.5 mM Tris-HCl pH 7.5

| Molecule | Km [1] | kcat (purified protein [2]) [s⁻¹] | kcat/Km (purified protein [2]) [M⁻¹ s⁻¹] | kcat (purified protein [3]) [s⁻¹] | kcat/Km (purified protein [3]) [M⁻¹ s⁻¹] | kcat (purified protein [4]) [s⁻¹] | kcat/Km (purified protein [4]) [M⁻¹ s⁻¹] | kcat (purified protein [5]) [s⁻¹] | kcat/Km (purified protein [5]) [M⁻¹ s⁻¹] | kcat (purified protein [6]) [s⁻¹] | kcat/Km (purified protein [6]) [M⁻¹ s⁻¹] | kcat (purified protein [7]) [s⁻¹] | kcat/Km (purified protein [7]) [M⁻¹ s⁻¹] | kcat (purified protein [8]) [s⁻¹] | kcat/Km (purified protein [8]) [M⁻¹ s⁻¹] |
| --- | --- | --- | --- | --- | --- | --- | --- | --- | --- | --- | --- | --- | --- | --- | --- |
| C=C(OP(=O)(O)O)C(=O)O [PEP] | 0.64+ / - 0.05 mM | – | – | – | – | – | – | – | – | – | – | – | – | – | – |
| PyrKII (P. falciparum pyruvate kinase II; His-PyrKII) (Plasmodium falciparum 3D7) (protein, residues 42-745 (predicted mature protein, apicoplast trafficking peptide removed); synthetic codon-harmonized gene; MBP-TEV-His6 fusion from E. coli BL21 Star (DE3), MBP cut by TEV, N-terminal His6 kept; 83,014 Da) GSGNGSGDLLFLNNININKNVERKKNILAHSEIGTVRNIDDINLLNHNKKNEISFTKCKQIATIGPASENFEQLEKLYLNGIDVFRLNFSHGLKSIKKYIINSIRILEKKYDTTIGILGDIQGPKIRIGEFEKNQINENDNNTFVELKEGDLFSFDLMNSLGNQNRVQLNYPELIKNAKAGQIILLDDGNLKMKILENNYDTSNIQNSYIKVQVLTGGKLYSKKGFCIPNMIMPIDVLSEKDIKDILFCINEEVDFLGYSFVQTEYDLIFLRNIINDYYESDFYNNIKRKDRINFDQNNLQMKTFDDENDFYIKEVNDYYNNYYLKNVQKYKQIYDVYKNQDLYINDNIQNHYNKNIVTNIGDDKNIIDEQHIHNNNNNNIDNIMKNYSNLYNINKDHNKIAIISKIEKPSAIKNIENIIKLSDGIMIARGDLGIETNLSNLPILQKKLINLCRIKYNKPVIVATQMMESMRFLPSPTRAEVTDVATALYDGSDCVMLSAETATGQYPILTVSTQNKIIKDVENDYYYYEYTQRKNDKLKMLDHKNNCCHENKDIQQINKYNHEYIQNNKYEQDIQNNISYFDKLIFSIRDISNNINLKSIILFSNEFNKIQKLSNLRTKAPIIVITENKYLARKLQLTWGIYPHLSKKQNLFNHDLFSLINYGCDVSKKEGFVNSPDEYSLVTFSKNINSANLLYLCQPCLTN | – | 7.3 ± 1.15 | 7200 | 1.3 ± 0.05 | 2480 | 6.62 ± 0.75 | 98200 | 1.5 ± 0.0833 | 5300 | 13.2 ± 3.1 | 53300 | 6.68 ± 0.517 | 17800 | 4.2 ± 0.667 | 5100 |
